Experimental findings from the supplement of paper PMC9170038 are described below.

The test system of this data set is MS2 coat protein. The data set can be described thus: apparent KD of MS2 coat protein; designed switch direction (-1 OFF switch, 1 ON switch): 1; higher = weaker reporter binding. Put shortly:
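For each design, the apparent KD is the median over clusters of curves fitted to normalised cluster fluorescence. Clusters held RNA switches with common flanks, transcribed on Illumina chips by stalled E. coli RNA polymerase. These were titrated with SNAP-549-labelled MS2 coat protein, doubling from 0.7 or 1.5 nM to 3 µM, without input, with 200 uM small-molecule ligand, or with an oligonucleotide input.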

Where [1] appears, read: Eterna round: R95, input ligand: FMN 200 uM.
[2] abbreviates: Eterna round: R95, input ligand: microRNA oligo, concentration not stated.
[3] abbreviates: Eterna round: R95, input ligand: none.
[4] abbreviates: input ligand: microRNA oligo, concentration not stated.

As to “CCGAUGACAGGACAGGAUAUGACUGUCGUCACAUGAGGAUCACCCAUGUCCCGGCAAUGCCACCGUUAGAAGGGUCCUAUCUCGG [Arxeina] (puzzle: Same State 2)”, the “apparent KD of MS2 coat protein” value runs as follows: under setting [1], 16.7 nM; under setting [2], 16.3 nM; under setting [3], 18.2 nM.
For the sequence “CCGAUGUGGGUACAGGAUAUGUGGGCCUCCACAUGAGGAUCACCCAUGUCGGAGGCAAAGCGGCUACAGAAGGGUGCGUGCUCGA [Riinceer] (puzzle: Same State 2)”, the “apparent KD of MS2 coat protein” value came to 13.1 nM under setting [1], 11.3 nM under setting [2] and 12.3 nM under setting [3].
The like results for “CCGAUGUGGGUACAGGAUAUGUGGGCCUCCACAUGAGGAUCACCCAUGUCGGAGGCAAUGCGGCUACAGAAGGGUGCGAGCUCGA [Tileorat] (puzzle: Same State 2)” were, in that order, 14.1 nM, 10.9 nM and 13.5 nM.
As for “CCGCUAAAUGGAGGAUAUGGAGCCUUAUUGGCUCCAGAAGGCUAAAACAUGAGGAUCACCCAUGUGCGGCGGUCUAAUGACCGA [Eli NG1ss - 49] (Eterna round: R96, puzzle: Same State NG 1)”, the “apparent KD of MS2 coat protein” value (input ligand: FMN 200 uM) was 14.7 nM, the “apparent KD of MS2 coat protein” value under setting [4] turned out to be 34.6 nM and the “apparent KD of MS2 coat protein” value (input ligand: none) was 49.3 nM.
Regarding “CCGGCAAGUAUAGGAUAUCCCGCAACAGAAGCGGGAGAAGGGUGCCAAACAUGAGGAUCACCCAUGUACACCGGAAAUAAAUAA [Veaat] (Eterna round: R96, puzzle: Same State NG 1)”, the “apparent KD of MS2 coat protein” value was found to be 92.9 nM (input ligand: FMN 200 uM), 46.6 nM under setting [4] and 30.5 nM (input ligand: none).
With “CCGUAAUAUGGAGGAUAUGGAGCCUUAUUGGCUCCAGAAGGUCAAAACAUGAGGAUCACCCAUGUAUCGGCGGUCAAUAGACCG [Eli NG1ss - 74] (Eterna round: R96, puzzle: Same State NG 1)”, the “apparent KD of MS2 coat protein” value by setting is: (input ligand: FMN 200 uM) 42.1 nM; under setting [4], 53.3 nM; (input ligand: none) 91.2 nM.
The like results for “CCUUAGUACAAUUUAGAUCUACAUGAGGAUCACCCAUGUACUGAGGAUAUCAGCUCGAUUAGAGCUGAGAAGGCAGAAGUACUU [SSNG3/7-A2] (Eterna round: R96, puzzle: Same State NG 3)” were, in that order, 90.9 nM, 122 nM and 144 nM.
The like results for “CCUUAGUACAAUUUAGAUCUACAUGAGGAUCACCCAUGUACUGAGGAUAUCAGCUCGUUUAGAGCUGAGAAGGCAGAAGUACUU [SSNG3/7-A3] (Eterna round: R96, puzzle: Same State NG 3)” were, in that order, 75.1 nM, 67.6 nM and 140 nM.
The like results for “CCUUCGGGAGUAGGAUAUGUAGGAUAUGCCUACAUGAGGAUCACCCAUGUUCGCAUGGCAGAAGGACAGAAGGACACGUUCGCG [pwkr ssNG2 2FMN + 1F5.13] (Eterna round: R96, puzzle: Same State NG 2)” were, in that order, 95.4 nM, 287 nM and 652 nM.
Take “CGAAAGAAGCGAGGAUAUGCAGAGGAUCACCCUGCAGAAGGCGCAAAAGCGAGGAUAUGCAGAGGAUCACCCUGCAGAAGGCGC [pwkr ssNG DX.32] (Eterna round: R96, puzzle: Same State NG 1)”: the “apparent KD of MS2 coat protein” value is, setting by setting: (input ligand: FMN 200 uM) 20.2 nM; under setting [4], 20.5 nM; (input ligand: none) 18.1 nM.
With “CGAACACGUUGAGGAUAUGCAGAGGAUCACCCUGUAGAAGGCAACAGAUGAGGAUAUGCAGAGGAUCACCCUGUAGAAGGCAAC [pwkr ssNG DX.5] (Eterna round: R96, puzzle: Same State NG 1)”, the “apparent KD of MS2 coat protein” value came to 54.3 nM (input ligand: FMN 200 uM), 68.6 nM under setting [4] and 116 nM (input ligand: none).
For “CGACACACGGCAGGAUAUCGAUUCCAAAGGAAUCGAGAAGGGCCUCAUGUCGUGGAAACGUGACAUGAGGAUCACCCAUGUCGC [Omei SS(NG)1 Cv17] (Eterna round: R96, puzzle: Same State NG 1)”, the “apparent KD of MS2 coat protein” value by setting is: (input ligand: FMN 200 uM) 17.2 nM; under setting [4], 11 nM; (input ligand: none) 16.9 nM.
The like results for “CGACACACGGCAGGAUAUCGAUUCCAAAGGAAUCGAGAAGGGCCUCAUGUCGUGGAAACGUGACAUGAGGAUCACCCAUGUUGC [Omei SS(NG)1 Cv18] (Eterna round: R96, puzzle: Same State NG 1)” were, in that order, 26.8 nM, 11.6 nM and 24.6 nM.
As to “CGAUACACGGCAGGAUAUCGAUUCCAAAGGAAUCGAGAAGGGCCUCAUGUCGUGGAAACGUGACAUGAGGAUCACCCAUGUUGC [Omei SS(NG)1 Cv20] (Eterna round: R96, puzzle: Same State NG 1)”, the “apparent KD of MS2 coat protein” value is, setting by setting: (input ligand: FMN 200 uM) 84.4 nM; under setting [4], 36.1 nM; (input ligand: none) 55.4 nM.
Turning to “CGAUGAUACUUAGGAAGAAGAGUUGAGGUACAUGAGGAUCACCCAUGUCGGAGCUUUUUGCUCGUCAUGAACAGGAA [JR_SHM208a_Sub007] (puzzle: Sensor for hsa-mir-208a)”, the “apparent KD of MS2 coat protein” value by setting is: under setting [1], 65.2 nM; under setting [2], 34.8 nM; under setting [3], 79.5 nM.
In the case of “CGAUUCGCCAGUACAUGAGGAUCACCCAUGUAGAGACCAGUUUAGGAUAUCUUUGCGACGUGCUGAGAGAAGGGAAUAUGGAGC [Eternabot solution 45] (Eterna round: R96, puzzle: Same State NG 3)”, the “apparent KD of MS2 coat protein” value worked out at 33.1 nM (input ligand: FMN 200 uM), 27.5 nM under setting [4] and 37.4 nM (input ligand: none).
The like results for “CGCAUCCUUGUUACAUGAGGAUCACCCAUGUUUUCGAGUGGAGAGGAUAUCGUAACAGUAUUUUUCGAGAAGGCUCUAUAGUUU [JR_SSNG3_Sub080] (Eterna round: R96, puzzle: Same State NG 3)” were, in that order, 41.7 nM, 37.6 nM and 56.9 nM.
The like results for “CGCCAGAGAACAGGAUAUGGGCCGCAGCCUAUGGGCCGCGAACUCACAUGAGGAUCACCCAUGUCCCAGAAGGGUUCCUGGCUG [Tiusonon] (Eterna round: R96, puzzle: Same State NG 2)” were, in that order, 154 nM, 596 nM and 2070 nM.
The like results for “CGCCGACAUGAGGAUCACCCAUGUCACAACUGGUCAGGAUAUGGUAUGAUUUGGCUAUUGCCAGAAGGGACCUCAG [JR_SS001_Sub712] (Eterna round: R96, puzzle: Same State 1)” were, in that order, 22.4 nM, 28.8 nM and 30.6 nM.
“CGCUGUCACGCAGGAUAUGCAUUGGAUUACAAUGCAGAAGGGCGAUUACAUGAGGAUCACCCAUGUGUAGACAGUGAAGAAGAG [MOD JMF Solution 3] (Eterna round: R96, puzzle: Same State NG 1)”: the “apparent KD of MS2 coat protein” value by setting is: (input ligand: FMN 200 uM) 32.4 nM; under setting [4], 271 nM; (input ligand: none) 386 nM.
The like results for “CGGAGACGUCAAGGAUAUGCUACCGUUUCGGUAGCAGAAGGUGAUCACAUGAGGAUCACCCAUGUAUGCAUGCGUGAGCGUGCU [JL SSNG1 3.51] (Eterna round: R96, puzzle: Same State NG 1)” were, in that order, 125 nM, 99.2 nM and 21.1 nM.
As for “CGGCGCUGUCGAGAGGAUAUGCGGUGAUGGACAUGAGGAUCACCCAUGUUAGCGAUAGCAUCACGGUAGAAGGCUCUACGGCUGG [Soteed Omei mod 20] (puzzle: Same State 2)”, the “apparent KD of MS2 coat protein” value by setting is: under setting [1], 10.7 nM; under setting [2], 18.6 nM; under setting [3], 26.2 nM.
As for “CGGCGCUGUCGAGAGGAUAUGCGGUGAUGGACAUGAGGAUCACCCAUGUUAGCGAUAGCAUCACGGUAGAAGGCUCUACGGCUUG [Soteed Omei mod 21] (puzzle: Same State 2)”, under setting [2], the “apparent KD of MS2 coat protein” value worked out at 31 nM.
Take “CGGGACAUGAGGAUCACCCAUGUGCCGAAAGGCACAAGAACGCAGGAUAUAGGGCAAAGACAGCCCUAGAAGGGUGACCUUGUG [Tiesralabe] (Eterna round: R96, puzzle: Same State NG 3)”: the “apparent KD of MS2 coat protein” value is 197 nM (input ligand: FMN 200 uM), 21.3 nM under setting [4] and 117 nM (input ligand: none).
Turning to “CGGGUACAUGAGGAUCACCCAUGUUGGAGUAAUGCAGGAUAUGUGGGACGAGGUUAUAAAACAGAAGGGCAAGGAG [JR_SS!_Sub011] (puzzle: Same State 1)”, the “apparent KD of MS2 coat protein” value reads like this: under setting [1], 53.5 nM; under setting [2], 62.9 nM; under setting [3], 67.2 nM.
“CGGUGUGAGAAAGGAUAUGUUCGCUAGUCGCGAGCAGAAGGUUCUGCGCGCUGCUAUACGAACAUGAGGAUCACCCAUGUAAAA [Laqu] (Eterna round: R96, puzzle: Same State NG 1)”: the “apparent KD of MS2 coat protein” value turned out to be 130 nM (input ligand: FMN 200 uM), 11.8 nM under setting [4] and 69.2 nM (input ligand: none).
On to “CGUAGGUAGCUGGAGGAUAUCCGAGUGGUAACAUGAGGAUCACCCAUGUGAUGAAAGGAACAUGAGGAGAAGGCUAGCUGCCUGC [JL-ss2-3.11 JL mod] (puzzle: Same State 2)”, for which the “apparent KD of MS2 coat protein” value runs as follows: under setting [1], 15.4 nM; under setting [2], 29 nM; under setting [3], 30.9 nM.
The like results for “CGUAGGUAGCUGGAGGAUAUUCGAGUGGUAACAUGAGGAUCACCCAUGUGGAGUUAGUUACAUGAGGAGAAGGCUAGCUGCCUGC [JL-ss2-3.17 JL mod] (puzzle: Same State 2)” were, in that order, 36.7 nM, 61 nM and 74.5 nM.
